For assay [1], the target named is MBP-tagged Tlg2 SNARE motif (residues 258-327) (Chaetomium thermophilum). Kind of assay: AUC; sedimentation velocity, 42,000 rpm, 20°C, gel filtration buffer; MBP-Tlg2(258-327) 9 µM, Tlg2(79-200) 72 µM, Tlg2(258-327) 168 µM; c(S) by SEDFIT. On the technique in general: SEC sorts molecules by how far they enter the pores of the column.
Assay [2] deals with Untagged Tlg2 SNARE motif (residues 258-327) (Chaetomium thermophilum). The description is as above.
Another assay deals with Syntaxin-16 N-peptide (UniProt Q8BVI5). As to conditions: cited from earlier work.
UniProt Q8BVI5, sequence (Q8BVI5 1-27): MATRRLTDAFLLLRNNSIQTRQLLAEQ

In turn, “MBP-tagged Tlg2 SNARE motif (residues 258-327) (domain or fragment)” gave a stoichiometry N in assay [1] of 4.

Turning to “Untagged Tlg2 SNARE motif (residues 258-327) (domain or fragment)”, the stoichiometry N in assay [2] is 4.

With Vps45 (from UniProt P97390), the dissociation constant Kd with Syntaxin-16 N-peptide was 27 nM.

A word on the stoichiometry N: it is a count of units in the complex or per binding partner. As a reminder, the Kd is the constant that tells how readily two partners part at equilibrium.

These data come from article PMC7470827.
